In patent US20150351390A1, “COMPOSITIONS AND METHODS FOR AUXIN-ANALOG CONJUGATION” (PIONEER HI-BRED INTERNATIONAL, INC., priority 2012, published 2015):

Legend:
[1] = LC-MS assay of GH3 conjugation of IAA with Asp or Glu; assay type: biochemical; conditions: for kcat (hrs−1) IAA-Asp: conjugation of IAA with Asp by recombinant GH3 protein, IAA-Asp product by LC-MS; for kcat (hrs−1) IAA-Glu: conjugation of IAA with Glu by recombinant GH3 protein, IAA-Glu product by LC-MS; for IAA conjugation activity with Asp or Glu: result in words
Protocol: (§1) To detect and monitor the formation of acyl conjugates with 2,4-D or dicamba, a sensitive LC-MS method was developed using the respective amino acid conjugate standards. […] The reaction was performed at 30° C., 105 rpm, for 3 hours in buffer containing 20 mM Tris-HCl (pH 8.0), 5 mM MgCl2, 5 mM auxin (IAA, 2,4-D or dicamba), 5 mM ATP, 5 mM Asp or Glu, 1 mM DTT and 44 to 164 μg/mL purified GH3 protein in 100 μL reaction. After 3 hours of reaction, 400 μL 100% MeOH was added to the reaction mixture for protein precipitation. The supernatant was diluted 20× in water and then analyzed by LC-MS (AB Sciex 4000 QTrap coupled with Shimadzu Nexera UHPLC) using a Phenomenex Luna 3 μm Phenyl-Hexyl (00B-4256-Y0) column. The concentration of the conjugates was calculated based on the standards. Kinetic parameters were estimated by fitting initial velocity values to the Michaelis-Menten equation.
(§2) The GH3 superfamily conjugase activity analysis of IAA, 2,4-D or dicamba with Asp or Glu was done using LC-MS to analyze the final conjugate products as described in Example 1. Protein sequences of GH3 homologs (Table 3) were obtained from public databases (NCBI, http://www.ncbi.nlm.nih.gov/) by Blast analysis of AtGH3.17 protein sequence (accession # Q9FZ87). Coding sequences were designed for optimal expression in E. coli based on the protein sequences and synthesized. Synthesized coding sequences along with N-term his-tag coding sequences were cloned into a pET24a-based E. coli expression vector. The E. coli expression vectors were transformed into OverExpress C41(DE3) cells (Lucigen) for protein expression. Recombinant E. coli strains were inoculated into 5 ml LB media supplemented with 40 mg/L kanamycin and cultured overnight at 37° C. The overnight culture (0.5 mL) was inoculated into 50 mL LB medium plus 40 mg/L kanamycin and grown at 30° C. until OD600 reached 0.6. The cultures were induced with 0.2 mM IPTG at 16° C., 230 rpm overnight. Cells were harvested by centrifugation at 7,000 rpm for 10 mins. The cell pellet from 50 mL of cell culture was frozen and thawed twice and then lysed in 800 μL lysis buffer A (150 mM NaCl, 50 mM Tris-HCl pH 8.0, 5 mM MgCl2, 10% glycerol) plus 20 mM imidazole, 1 mM DTT, 0.2 mg/ml lysozyme, 1/200 protease inhibitor cocktail (EMD set3, EDTA free) and 1/2000 endonuclease. Lysate was then centrifuged at 13,000 rpm for 30 min at 4° C. Supernatant was loaded onto 200 μL Ni-NTA columns pre-equilibrated with buffer A with 20 mM imidazole at 4° C. Each column was then washed with (1) 2×800 μL of buffer A with 10 mM imidazole, (2) 2×800 μL of buffer A with 20 mM imidazole and (3) 2×200 μL of buffer A with 50 mM imidazole. Protein was eluted with 200 μL of buffer A with 250 mM imidazole. The concentration was measured by Bradford assay. Purified protein was used in conjugation reaction assays as described in example 1.

[2] = LC-MS assay of GH3 conjugation of 2,4-D with Asp or Glu; assay type: biochemical; conditions: for kcat (hrs−1) 2,4-D-Asp: conjugation of 2,4-D with Asp by recombinant GH3 protein, 2,4-D-Asp product by LC-MS; for kcat (hrs−1) 2,4-D-Asp / kcat (hrs−1) 2,4-D-Glu: 5 mM 2,4-D substrate; for kcat (hrs−1) 2,4-D-Glu: conjugation of 2,4-D with Glu by recombinant GH3 protein, 2,4-D-Glu product by LC-MS; for 2,4-D conjugation activity with Asp or Glu: result in words
Protocol: as §1, §2

Molecule	kcat (hrs−1) IAA-Asp [1] [h⁻¹]	kcat (hrs−1) IAA-Glu [1] [h⁻¹]	IAA conjugation activity with Asp or Glu [1]	kcat (hrs−1) 2,4-D-Asp [2] [h⁻¹]	kcat (hrs−1) 2,4-D-Glu [2] [h⁻¹]	2,4-D conjugation activity with Asp or Glu [2]
OsGH3-11: GH3 protein, accession P0C0M3 (protein, listed as Oryza sativa) MDDHNLDYKGSGALEELEMLTVNAKEAQELILTKILERNQATEYLSKFMNGSTNISAFKRHVPVVTYDKVHPYILRIATGEESSILCGEYILELLRSSGTSRGEPRLMPSILKDLDRRTYLYSLIMPIMNKYISGLGEGKAMYLLFVKAETLTDSGIPVRSVLTSYYKSPHFLHRKHDLYNNYTSPDEVILCPDSQQSMYCQLLCGLVERQHVLRIGAVFASAFLRSISFLEQHWRDLVNDIRIGQLNSSITSPACRLAMLNFLALPNPELADQVEAICSCGSWKGILGRLWPNVKYIEAVLTGTMAQYIPMLEFYGGGAIPFVCTMYASSESYFGVNLSPLCSPADVSYTILPNMAYFEFIPLEDGLRLTDHEEVIENDKLVSLVDVKVGCYYELVVTTFSGLYRYRVGDVLQVTGFYNRAPQFKFICRRNVILSIDSDKTNEEDLHNSVTTAKKILENQNYLLLEYTSYTDISTVPGHYVLFWEIKSTHDERPAPLDAQLLESCCAAVEESLDYVYRRCRAHDRSIGPLEIRLVEAGAFDALMDLLVSHGSSINQYKTPRCIESSLALKLLNSKVIACFFSPQDPECGM	0.000	0.000	IAA-inactive	0.000	0.043	2,4-D conjugases
SmXP_002986992: GH3 protein, accession XP_002986992 (protein, listed as Selaginella moellendorffii) MEDFEAVCKNAVQAQEEALVQILQRNGSCHYLQRFGQPLCLKSFKTQLPIISYDNISPELQQIADHGTSHLLLGCDPILYFSFSSGTSSGKHKILPQTNCGYSLLARAYASSNAYRDEVFPLESTKPIGLHFVYSGEQYKAKSGLLLGAGSTNYYKSEAYNQEAETLATPYEALLAGSDWQQTTYCHLLCGLVQRHKIEFIHATFAYTLSEAFRLLESDWKILCEDISARRVSESKVTDEKLRVPVLKLMERELRGKDSSQVAREISEIFVTSKESRWSGLLPLLWPRAKYVHTVVTGAMEPYIPVLKKYAGDKLAIVGFDYSASEGYLGINMRPATPPEEVVFTLIPYTMFFEFIPVDPEEVPDHQQGETLGFKDLQVGKQYELVVTTFEGLYRYRIGDVVKVTGFHHESPIVAFSYRKNAVLSINAEKVDEQELQKVVMGSAGPLEIANFTSCADFATKERPHYVIYWELKNDGDNSRHEELRDSCNALDRGFNAAYLVGRVDKTLGALELVTVKQGTFEKLMEKAIESGASASQYKTPRCIKSPALLELLDQGAIGRYTSSEDISSLLAEDWKPSVIHGL	0.000	0.000	IAA-inactive	0.000	0.006	2,4-D conjugases
SmXP_002983845: GH3 protein, accession XP_002983845 (protein, listed as Selaginella moellendorffii) MENEQLLLEKLESSSWSPGEAQDKVLAEILEKNAATDYFNRHGLRAATKEVFRQRAPVIEYEDIKDEINRIADGEAATLLCANPIADMFTSSGTSGGAHKLFPKVEGHYAVSKYFFDLATALLNRDLPGLRTGKALYFLYVRSGRKTPGGLPAYPALTGYYNSLEFRNRPFDPSNDYTSPLEVILCTDSVQASYCHLLCGLIHARDVTKLGCFFASVFVRSIRCLEAWWQELSRDIRTGTLSERVVDPACREAVEKILRPDPELANVIDEACSSGSLKGIVRKLWPSAKAIDTVVTGAMEQYVGEVDYLTDGLPIASMIYASSESFFGVNLKPLCEPSQISYMFLPETSYYEFLPVARSEEKASREEPVELVDVEQGHEYELVITTNAGLYRYRMGDVLRVEGFHNKAPLFSFVCRTNVLLSIDSDKTDEKELQTAVMNAFAALRNGVTSKEGEAIRLTDYTSYADLSSNPPHYVIYWELSSELHLEPEKAGECCYKMEESLSVVYHRGRMERSIGALELRLVTPGTFNRIADDAASRGGSVSQFKLPRCIKKNATRMLEIVESGVYQQYFSPRAPKY	0.000	0.000	IAA-inactive	0.090	0.052	2,4-D conjugases
AtGH3-9: GH3 protein, accession O82243 (protein, listed as Arabidopsis thaliana) MDVMKLDHDSVLKELERITSKAAEVQDNILRGILERNKDTEYLSKYMNGSKDVLEFKRAVPIIIYKDIYPYIQRIANGEDSSLITGHSITEILCSSGTSAGEPKLMPTIPEDLDRRTFLYNLIIPIVNKYITGLDKGKAMYLNFVKAETSTPCGLPIRAVLTSYYKSKHFQCRPYDPFNDLTSPIQTILCEDSNQSMYCQLLAGLIHRHKVMRLGAVFASAFLRAISYLEKKWSQLCEDIRTGSLNPMITDPGCQMAMSCLLMSPNPELASEIEEICGRSSWKGILCQLWPKAKFIEAVVTGSMAQYIPALEFFSQGKIPLVCPMYASSETYFGVNVEPLSKPSDVVFTLLPNMCYFEFIPLGKNGTLSFDLDDDEQVPCDKVVDLVNVKLGRYYELVVTTFAGLYRYRIGDVLQVAGFYNGAPQFRFICRRNVVLSIDLDKTNEEDLHRSITLAKKKLGSNAFLAEYTSYADTSSVPGHYVLFWEIQGHLEPKLMEECCVAVEEELDYIYRQCRTKERSIGALEIRVVKPGTFEKLMDLIISQGGSFNQYKTPRCVKSNSATFKLLNGHVMASFFSPRDPTWVP	0.000	0.000	IAA-inactive	0.000	0.005	2,4-D conjugases
AIGH3-9: GH3 protein, accession EFH58389 (protein, listed as Arabidopsis lyrata) MDVMKLDYNYKGGNALTELERITSKAAEVQDNILCGILERNKDTEYLSKYMKGSKDVVEFKRSVPIITYKDIYPYIQRIANGEDSSLITGHPITEILCSSGTSAGEPKLMPTISEDLDRRTFLYNLIIPIVNKYIPGLDKGKAMYLNFVKAETSTPCGLPIRAVLTSYYKSKHFQCRPYDPFNDLTSPIQTILCEDSNQSMYCQLLAGLIHRHKVMRLGAVFASAFLRAISYLEKKWSQLCEDIRTGRLNPMITDPGCQIAMSCLLTSPDPELASEIEEICSRSSWKGILCHLWPRAKFIEAVVTGSMAQYIPALEFFGQGKIPLVCPMYASSETYFGVNVEPLSKPSDVVFTLLPNMCYFEFIPLGKNGALSFDLDDDEQVPCDKVVDLVNVKLGRYYELVVTTFAGLYRYRIGDVLQVAGFYNEAPQFRFICRRNVVLSIDLDKTNEEDLHRSITLAKKKLGSNAFLAEYTSYADTSSVPGHYVLFWEIQGHLEPKLMEGCCVAVEEELDYIYRQCRTKERSIGALEIRVVKPGTFEKLMDLIISQGGSFNQYKTPRCVKSNSATFKLLNGHVTASFFSPRDPTWVA	0.000	0.000	IAA-inactive	0.000	0.015	2,4-D conjugases
OsGH3-7: GH3 protein, accession Q654M1 (protein, listed as Oryza sativa) MALLLPEFDPADVRAGRDLIHRLTADAAGIQRGVLREILSRNSGTEYLRRFLGGAAGDDDDVRDAFKRRVPVSGYEDVKPYVDRVASGGEPSSALLCSDPITCLSRSSGTSGGQQKLLPSTAEELDRKVFFYAVQALVRNMSLHTDHGEDDDGGGGEGMYLMFAFHGDRTLSGLPIQSALTTYYHSRQFQECDIGGFDKCTSPLEAILCPYGEQSMYCQLLCGLLHRCRVDRVGASFAAGLVRGIKFLENHWEEMCFNIRSGQLSDWITHTPLRDAVTGQYLQGSNPALADEIASECARKPWDGIVRRLWPRARYIRTIVTGSMSQYIPILEVYGGGLPLVSPIYASTECAAGINLRPLDPPSHVSYALLPNIAYFEFLEVMDENGEKVQGTTRLDDNLGEVKVVDLVDVKVGRCYELIVTTFAGLYRYRVGDLFTVSGFYNATPLFHFSGRHDVILSIDYEKISEEDLLNAIAETDKFHLRPLGYMLVGSTAYADISTLPGHYILFWELTNTCDSNVAIDIDQTAMEKCCLAVEDHFDEMYRKIRHRGSISALEIRILSHGAFDALMDFFVSRGTSASQYKTPTAIRSKEAMMVLEERVVGRFFSQATPSCRSAEFERR	0.000	0.000	IAA-inactive	0.000	0.028	2,4-D conjugases
